Assay results reported in US20080242633A1.

Molecular target: Apaf-1 (UniProt O14727)
Assay: cell-based or functional assay

UniProt O14727, sequence (O14727 whole entry): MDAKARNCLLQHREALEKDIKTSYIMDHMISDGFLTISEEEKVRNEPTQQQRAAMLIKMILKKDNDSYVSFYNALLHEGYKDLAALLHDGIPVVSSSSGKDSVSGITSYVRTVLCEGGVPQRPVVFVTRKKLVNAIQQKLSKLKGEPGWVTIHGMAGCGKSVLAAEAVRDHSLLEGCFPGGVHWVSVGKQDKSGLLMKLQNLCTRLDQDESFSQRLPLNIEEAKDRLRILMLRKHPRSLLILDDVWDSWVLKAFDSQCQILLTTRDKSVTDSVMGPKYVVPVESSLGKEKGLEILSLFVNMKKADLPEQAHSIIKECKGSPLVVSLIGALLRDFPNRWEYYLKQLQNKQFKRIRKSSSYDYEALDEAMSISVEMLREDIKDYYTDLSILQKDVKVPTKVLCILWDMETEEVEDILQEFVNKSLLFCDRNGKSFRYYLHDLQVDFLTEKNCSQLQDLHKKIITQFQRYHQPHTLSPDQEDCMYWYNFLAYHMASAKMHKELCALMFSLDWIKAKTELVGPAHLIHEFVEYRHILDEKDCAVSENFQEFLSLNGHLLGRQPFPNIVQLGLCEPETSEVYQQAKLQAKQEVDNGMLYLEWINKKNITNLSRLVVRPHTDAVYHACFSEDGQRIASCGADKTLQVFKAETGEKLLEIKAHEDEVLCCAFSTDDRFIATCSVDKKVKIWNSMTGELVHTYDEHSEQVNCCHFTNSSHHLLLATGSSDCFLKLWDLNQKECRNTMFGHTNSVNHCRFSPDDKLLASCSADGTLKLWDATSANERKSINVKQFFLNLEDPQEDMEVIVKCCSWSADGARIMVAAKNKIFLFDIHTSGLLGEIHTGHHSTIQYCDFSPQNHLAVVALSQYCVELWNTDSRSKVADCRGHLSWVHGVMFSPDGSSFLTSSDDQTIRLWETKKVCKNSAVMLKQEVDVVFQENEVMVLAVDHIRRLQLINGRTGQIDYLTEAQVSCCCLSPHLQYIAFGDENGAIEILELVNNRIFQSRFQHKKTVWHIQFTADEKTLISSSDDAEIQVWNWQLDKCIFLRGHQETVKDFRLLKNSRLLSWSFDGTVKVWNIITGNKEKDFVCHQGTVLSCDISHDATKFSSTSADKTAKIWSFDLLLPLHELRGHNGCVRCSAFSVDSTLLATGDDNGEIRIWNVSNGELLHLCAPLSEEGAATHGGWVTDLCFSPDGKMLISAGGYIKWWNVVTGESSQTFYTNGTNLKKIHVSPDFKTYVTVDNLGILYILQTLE

Question: For “CYCS(Gly42-Ser) (from UniProt P99999 2-105)”, which caspase-3 activation activity (AMC production rate from Ac-DEVD-AMC, cell-free assay with U-937 cytosol) (fold greater than wild type) is on record?
Answer: Its caspase-3 activation activity (AMC production rate from Ac-DEVD-AMC, cell-free assay with U-937 cytosol) (fold greater than wild type) is 1.4.
